This is an account of results in patent US9688743B2, “Optical biosensors” (Carnegie Mellon University, priority 2007, dated 2017).

A short description of data set [1]: Cell surface complementation, flow cytometry of TO1-2p fluorescence. The class given is cell-based. The following applies: 1 μM TO1-2P, induced JAR200 yeast, emission at 530. The protocol:
In the following experiments three classes of yeast cells were generated by molecular biology methods known in the art. One class of yeast expressed only the heavy chain of the scFv on the surface. A second class expressed only the light chain of the scFv on its surface. The third class expressed both the heavy and light chains on the surface. When the fluorescent reporter TO1 was added independently to solutions containing the three classes of yeast cells, only the third class that expressed both heavy and light chains at a high surface density produced a fluorescence increase, as shown below. Specifically, two vectors, pPNL6 and pPNL6URA3 were prepared, where the TRP1 gene of pPNL6 was replaced with the URA3 gene of S. cerevisiae. This approach allowed selection for both plasmids in a single cell. Fragments carrying scFv1, scFv1 HO (heavy only chain), or scFv1 LO (light only chain) were cloned into each of the two vectors. […]
In the first approach, flow cytometry was used to assay cellular fluorescence of the three classes of yeast in the presence and absence of TO 1. The population of induced cells was analyzed by measuring fluorescence emitted at 685 from a signal caused by protein labeled by anti-C-myc Alexa 647. […] For cells that expressed full length fragments the TO1-2p fluorescence was observed as emission at 530.
(In general: In flow cytometry, cells or beads pass a laser one at a time.)

Data set [2] is described as follows: Cell surface complementation, fluorescence spectrometer on cell suspensions. The class given is cell-based, yeast. The following applies: for Fluorescence: 1 μM TO1-2P, excitation 506 nm, emission 610 nm, corrected for buffer+dye and no-dye samples. The protocol: In the following experiments three classes of yeast cells were generated by molecular biology methods known in the art. One class of yeast expressed only the heavy chain of the scFv on the surface. A second class expressed only the light chain of the scFv on its surface. The third class expressed both the heavy and light chains on the surface. When the fluorescent reporter TO1 was added independently to solutions containing the three classes of yeast cells, only the third class that expressed both heavy and light chains at a high surface density produced a fluorescence increase, as shown below. Specifically, two vectors, pPNL6 and pPNL6URA3 were prepared, where the TRP1 gene of pPNL6 was replaced with the URA3 gene of S. cerevisiae. This approach allowed selection for both plasmids in a single cell. Fragments carrying scFv1, scFv1 HO (heavy only chain), or scFv1 LO (light only chain) were cloned into each of the two vectors.
JAR200 yeast cells were transformed with each single plasmid as well as both scFv1 HO (PNL6)+scFv1 LO (PNL6URA3) or both scFv1 HO (PNL6URA3)+scFv1 LO (PNL6). Analysis by FACS and TECAN followed induction of the cells. In both cases, 1 μM TO1-2P was used.
In the second approach, a fluorescence spectrometer was used to quantify the fluorescence from suspensions of cells. The fluorescence excitation wavelength was 506 nm and the emission wavelength was 610 nm. Values presented below are corrected from raw data by subtracting out the values for (buffer+dye) and induced (no dye) samples. They were then corrected for the per cent of the population that was induced, as determined by the flow cytometry analysis.

A short description of data set [3]: Fluorogen binding affinity to yeast surface displayed FBPs (TO1-2p). The protocol: Cell surface KD values were determined on Prism Graphpad Prism 4.0 software by non-linear regression analysis using a one-site binding algorithm for saturation binding: Y═Bmax*X═(KD+X) where X is the concentration of fluorogen. Determination of Fluorogen Binding Affinity to Soluble FBPs

Data set [4] is described as follows: Fluorogen binding affinity to soluble FBPs (TO1-2p). The following applies: soluble FBP, in words. The protocol:
(§1) Binding affinity to soluble scFvs was determined by monitoring fluorogenic signal under conditions of ligand depletion using a homogenous 96 well microplate assay similar to above. 1 nM HL1.0.1-TO1, 10 nM L5-MG and 100 nM HL4-MG were each assayed with a 0.1 to 1000 nM range of fluorogen. Fluorescence of each FBP+dye sample was corrected by subtracting the fluorescence of a dye only sample. KD values were determined by non-linear regression using Graphpad Prism 4.0 and a ligand depletion algorithm. Y═(X+KD+R−√{square root over ((−X−KD−R)^2−4*X*R)})÷2 where X is the concentration of fluorogen, and R is the concentration of FBP/fluorogencomplex at the observed or extrapolated plateau at maximum fluorescence. Determination of Quantum Yields

A short description of data set [5]: Fluorogenic enhancement of purified FBP (TO1-2p). Type of data set: biochemical. The following applies: direct measurement. The protocol: (§2) Fluorogenic enhancement of HL4-MG, L5-MG and HL1.0.1-TO1 was measured in 96 well microplates on a Tecan Safire2 reader by comparison of the fluorescence of 500 nM free fluorogen with the fluorescence of a mixture of 500 nM fluorogen and 2 μM respective FBP. After a 1 hour incubation to allow complex formation, fluorescence was measured at the excitation and emission maxima of the fluorogen/FBP complexes. Fluorescence of yeast PBS buffer was subtracted from all samples. Fluorescence readings were stable for at least 16 hours.
(§3) Extended gain settings were used to increase numerical accuracy. For HL4-MG and L5MG, the differences in fluorescence between complexes and free dye exceeded the extended gain range of the instrument, so intermediate concentrations of Cy5 were also measured to allow interpolation between the extreme values. Two independent experiments, each with triplicate measurements, were carried out for each of the 3 FBPS; standard deviations for averaged values of FBPS, free fluorogen or PBS were less than 5%. The fold-enhancement values for HL4-MG and L5-MG were respectively multiplied by 1.35 and 1.20 to correct for partial complexation.

The nature of data set [6]: Quantum yield and absorbance of FBP/TO1-2p complex. The class given is physicochemical. The protocol:
(§4) FIG. 15 provides graphs illustrating absorbance of fluorogens and FBP/fluorogen complexes. Shown are samples used in quantum yield determinations. The absorbance of FBP/fluorogen complexes is obtained on a dual beam PerkinElmer Lambda 45 spectrophotometer using an equal concentration of FBP without fluorogen as the reference.
(§5) Quantum yields were determined by comparing integrated spectra of FBP/fluorogen complexes with those of reference dyes. Corrected emission spectra were taken at concentrations of FBP/fluorogen complex and reference dyes giving similar absorbances at the excitation wavelength, and the intensity integral computed. Provisional quantum yields were calculated by the relation:
(§6) [formula] where (phi is the quantum yield, I is the integrated intensity, A is the absorbance, η is the refractive index, and R designates the reference dye. Provisional quantum yields were adjusted to 1:1 complexation by using the solution KD of the complex to quantify the proportional occupancy at these concentrations (using Graphpad Prism 4.0 and the above ligand depletion algorithm).
A cyanic dye, Cy5.18 in PBS and Di-S—C2-(5) in MeOH were used as reference fluorophores for the determination of HL4-MG/MG-2p and L5-MG/MG-2p quantum yields. […] These differences in absorbance magnitude underrepresent actual differences because of incomplete complexation at these concentrations. […]

Data set [7] in a line: Spectral characterization of yeast surface displayed FBPs (TO1-2p). The class given is physicochemical. The following applies: cell surface; for excitation maximum: free dye absorbance 504 nm. The protocol:
10^6 cells in 200 μl yeast buffer were assayed with 100-1000 nM MG-2p or TO1-2p. Spectra were corrected by subtraction of fluorescence of control cells not expressing scFvs.

A short description of data set [8]: Fluorogen binding affinity to soluble FBPs (MG-2p). The following applies: soluble versus yeast surface displayed FBP. The protocol:
as §1

A short description of data set [9]: Fluorogenic enhancement of purified FBP (MG-2p). Type of data set: biochemical. The following applies: HL4-MG/MG-2p complex. The protocol: as §2, §3
The nature of data set [10]: Quantum yield and absorbance of FBP/MG-2p complex. The class given is physicochemical. The protocol: as §4, §5, §6
A cyanic dye, Cy5.18 in PBS and Di-S—C2-(5) in MeOH were used as reference fluorophores for the determination of HL4-MG/MG-2p and L5-MG/MG-2p quantum yields. 2 μM scFv and 440 nM MG-2p were employed; emission spectra of respective complexes were taken in duplicate. […] These differences in absorbance magnitude underrepresent actual differences because of incomplete complexation at these concentrations. HL4MG/MG-2p and L5-MG/MG-2p quantum yields were respectively multiplied by 1.35 and 1.20 to correct for incomplete complexation. Fluorescein in 0.1 N NaOH and Rhodamine-6-G in MeOH were used as reference fluorophores for the determination of the quantum yield of HL1.0.1-TO1/TO12p. At the employed concentrations of 2 μM scFv and 520 nM TO1-2p, virtually complete complexation is expected, and no correction was used. Only slight changes in absorbance magnitude were noted.

B1: HO PNL6: scFv1 heavy chain only, vector pPNL6, displayed on yeast (antibody, V domains shown)
VH: QVQLVESEAEVKKPGSSVKVSCKASGGTFSSYAISWVRQAPGQGLEWMGGIIPIFGTANYAQKFQGRVTITADESTSTAYMELSSLRSEDTAVYYCVLLDTTMVTGYYFDYWGQGTLVTVSS
On to B1, for which the “MEAN 530 SIGNAL” value in data set [1] was 88. Further, in data set [2], the Fluorescence is given as 135. The “F/ (% Pop IND)” value in data set [2] (fluorescence corrected for per cent of population induced) worked out at 160.

B2: HO PNL6URA3: scFv1 heavy chain only, vector pPNL6URA3, displayed on yeast (antibody, V domains shown)
VH: QVQLVESEAEVKKPGSSVKVSCKASGGTFSSYAISWVRQAPGQGLEWMGGIIPIFGTANYAQKFQGRVTITADESTSTAYMELSSLRSEDTAVYYCVLLDTTMVTGYYFDYWGQGTLVTVSS
Turning to B2, in [1], the “MEAN 530 SIGNAL” value amounted to 82. The Fluorescence in data set [2] is −605.

B3: HL1.0.1-TO1: affinity matured fluorogen binding scFv, SEQ ID NO: 7 (protein)
scFv: QVQLVESEAEVKKPGSSVKVSCKASGGTFSSYAISWVRQAPGQGLEWMGGTIPIFGTADYAQEFQGRVTITTDESTSTAYMELSGLRSEDTAVYYCVLLGTTMVTGHYFDYWGQGTLVTVSSGILGSGGGGSGGGGSGGGGSNFMLTQPPSASGTPGQSVTISCSGSGSNIGNNKVNWYQQLPGTAPKLLIYSNNQRPSGVPDRFSGSKSGTSASLAISGLQSEDEADYYCAAWDDGLSGYVFGTGTKLTVL
modifications: scFv sequence
As a reminder, the Kd is the equilibrium constant for the complex coming apart. A lower Kd goes with a tighter complex. On to B3, for which the Kd in data set [3] (yeast cell surface displayed FBP, fluorogen TO1-2p) was ~3 nM. Moreover, the KD in solution entry in data set [4] is on record as “very similar to that observed on the cell surface”. In data set [5], the “fluorescence increase of TO1-2p upon binding” value is “about 2,600 fold”. In data set [6], the extinction coefficient is recorded as 60,000 M^−1 cm^−1 and the quantum yield is given as 0.47. Further, in data set [7], the emission maxima worked out at 530 nm and the excitation maximum is on record as 509 nm.

B4: HL4-MG: malachite green binding scFv, SEQ ID NO: 11 (protein)
scFv: QVQLVESEGGLVQPGGSLRLSCAASGFTFSSYEMNWVRQAPGKGLEWVSRIDGDGSSTNYADSVKGRFTISRDNAKSTLYLQMNSLRAEDTAVYYCTRARYFGSVSPYGMDVWGQGTTVTVSSGILGSGGGGSGGGGSGGGGSDIRVTQSPSSVSASVGDRVTISCRASQGIATWLGWYQQKPGKPPQLLIYSASTLQTGVPSRFSGSGSGTDFTLTISSLQPEDVATYYCQEGSTFPLTFGGGTKVDIKSGILEQKLISEEDL
modifications: scFv sequence, (GILEQKLISEEDL at end of sequence is derived from a vector)
Turning to B4, the “reduced affinity for MG-2p in solution as compared to surface display” value in data set [8] stood at 185 fold. In addition, in data set [9], the “fluorescence enhancement as compared to free fluorogen” value was “about 18,000 fold”. Further, in data set [10], the “absorbance of FBP/fluorogen relative to free MG-2p” value is recorded as “more than 1.4 fold”, the extinction coefficient entry is reported as “about 105,000 M^−1 cm^−1” and the quantum yield came out at 0.17.

B5: HL2-TO1: fluorogen binding scFv, SEQ ID NO: 5 (protein)
scFv: QVQLQQGGAGLLKPSETLSLTCGVYGGSFSGYYWSWIRQSPGKGLEWIGEINHSGSANYNPSVKSRVTISVDTSKNQFSLQLSSVTAADTAVYYCARDRAVLTGEGWYFDLWGRGTLVTVSSGILGSGGGGSGGGGSGGGGSSYELTQPPSVSVSPGQTASITCSGDKLGDKYTCWYQQKPGQSPVLVLYEDTKRPSGIPERFSGSNSGNTATLTISRVEAGDEADYYCQLWDSSSDHYVFGSGTKLTVL
modifications: scFv sequence
For the molecule B5, the dissociation constants entry in [3] (yeast surface displayed FBP, TO1-2p, in words) is recorded as “high nanomolar range”. In data set [7], this molecule had an emission maxima of 550 nm and an excitation maximum of 515 nm.

B6: L5-MG: malachite green binding light chain only FBP, SEQ ID NO: 13 (antibody)
VL: SASTGSFDSWGQGTLVTVSSGILGSGGGGSGGGGSGGGGSQAVVTQEPSVTVSPGGTVILTCGSSTGAVTSGHYANWFQQKPGQAPRALIFETDKKYSWTPGRFSGSLLGAKAALTISDAQPEDEAEYYCLLSDVDGYLFGGGTQLTVLSGILEQKLISEEDL
modifications: scFv sequence, (GILEQKLISEEDL at end of sequence is derived from a vector)
Turning to B6, the “reduced affinity for MG-2p in solution as compared to surface display” value in data set [8] worked out at 265 fold.
